Test system: azocasein
Test: Stability of Me-trypsin in the Example 2A composition, azocasein method
Type: physicochemical
Experimental: Azocasein Method The following solutions are used in this assay: 1) Buffer solution: 0.05 M sodium phosphate buffer containing 0.9% sodium chloride, pH 7.6. 2) Substrate solution: 2 mg/ml azocasein in the buffer solution mentioned above. The assay is initiated by mixing 1 ml of an appropriately diluted (such that the enzyme activity is in the range of standard curve) enzyme composition in phosphate buffer with 2 ml of azocasein substrate solution (2 mg/ml). After incubation at 37° C. for 20 minutes, the mixture is removed from the incubator and 1 ml of trichloroacetic acid to (14% w/v) is added to stop the enzyme reaction. The mixture is vortexed well and allowed to stand at room temperature for 20 minutes. After centrifuging at 2500 rpm (with a Beckman GS-6R Centrifuge) for 15 minutes, the supernatant is filtered with a serum sampler. 2 ml of the clear yellow filtrate is then adjusted to a neutral pH with 2 ml of 0.5 N sodium hydroxide and the absorbance of 440 nm wavelength light is measured with a spectrophotometer. The amount of azocasein hydrolyzed is calculated based on a standard curve of known concentrations of azocasein solution developed under identical conditions. An enzyme activity unit (“AZ U”) is defined as that amount of enzyme which hydrolyzes 1 μg of azocasein substrate/minute at 37° C. […] At the appointed time, aliquots were tested for enzyme activity by the azocasein method. Activity levels were compared with initial levels and expressed as percent remaining activity.

methyl trypsin [Me-Trypsin]
Percent Remaining Activity (40° C., 1 week): 100% | Percent Remaining Activity (40° C., 2 weeks): 100% | Percent Remaining Activity (40° C., 4 weeks): 93.7% | Percent Remaining Activity (40° C., 6 weeks): 100% | Percent Remaining Activity (40° C., 8 weeks): 100% | Percent Remaining Activity (40° C., 12 weeks): 100% | Percent Remaining Activity (45° C., 1 week): 100% | Percent Remaining Activity (45° C., 2 weeks): 100% | Percent Remaining Activity (45° C., 4 weeks): 92.7% | Percent Remaining Activity (45° C., 6 weeks): 97.8% | Percent Remaining Activity (45° C., 8 weeks): 100% | Percent Remaining Activity (45° C., 12 weeks): 97.6% | Percent Remaining Activity (50° C., 1 week): 91.8% | Percent Remaining Activity (50° C., 2 weeks): 91.8% | Percent Remaining Activity (50° C., 4 weeks): 82.4% | Percent Remaining Activity (50° C., 6 weeks): 81.3% | Percent Remaining Activity (50° C., 8 weeks): 75.2% | Percent Remaining Activity (50° C., 12 weeks): 71.5% | Percent Remaining Activity (55° C., 1 week): 82.1% | Percent Remaining Activity (55° C., 2 weeks): 75.3% | Percent Remaining Activity (55° C., 4 weeks): 46.5% | Percent Remaining Activity (RT, 1 week): 100% | Percent Remaining Activity (RT, 2 weeks): 100% | Percent Remaining Activity (RT, 4 weeks): 94.1% | Percent Remaining Activity (RT, 6 weeks): 100% | Percent Remaining Activity (RT, 8 weeks): 100% | Percent Remaining Activity (RT, 12 weeks): 100%

— patent US6358897B1, “Alkyl trypsin compositions and methods of use in contact lens cleaning and disinfecting systems” (Alcon Laboratories, Inc., priority 1996, dated 2002)
